The text below walks through data of article PMC9600979.

The target of assay [1] is gH-Lg CTSCR / HSV-1 gL (herpes simplex virus 1 (strain KOS)) (UniProt P10185). The assay is described as follows: split reporter (BiFC, NanoBiT); live CHO effector cells transfected with the two BiT-tagged partners and the remaining HSV-1 proteins required for fusion; Endurazine substrate; luminescence every 2 min at 37°C for 1 h before and 7.5 or 8 h after adding target CHO cells with or without nectin-1; quantified as area under the curve.

Assay [2] addresses gH-Lg TMDEBV / HSV-1 gL (herpes simplex virus 1 (strain KOS) | Epstein-Barr virus) (UniProt P10185). The description is as above.
In assay [3] the target is gH-Lg TMDEBV-CTSCR / HSV-1 gL (herpes simplex virus 1 (strain KOS) | Epstein-Barr virus) (UniProt P10185). The assay is described as above.
Assay [4] concerns the target HSV-1 gH-Lg expressed without gL (herpes simplex virus 1 (strain KOS)) (UniProt P06477). The experiment in a line: split reporter (BiFC, NanoBiT); as the NanoBiT assay in live CHO cells, but in the absence of HSV-1 gL (gH stays in the ER).
Sequence of UniProt P06477 (P06477 19-838): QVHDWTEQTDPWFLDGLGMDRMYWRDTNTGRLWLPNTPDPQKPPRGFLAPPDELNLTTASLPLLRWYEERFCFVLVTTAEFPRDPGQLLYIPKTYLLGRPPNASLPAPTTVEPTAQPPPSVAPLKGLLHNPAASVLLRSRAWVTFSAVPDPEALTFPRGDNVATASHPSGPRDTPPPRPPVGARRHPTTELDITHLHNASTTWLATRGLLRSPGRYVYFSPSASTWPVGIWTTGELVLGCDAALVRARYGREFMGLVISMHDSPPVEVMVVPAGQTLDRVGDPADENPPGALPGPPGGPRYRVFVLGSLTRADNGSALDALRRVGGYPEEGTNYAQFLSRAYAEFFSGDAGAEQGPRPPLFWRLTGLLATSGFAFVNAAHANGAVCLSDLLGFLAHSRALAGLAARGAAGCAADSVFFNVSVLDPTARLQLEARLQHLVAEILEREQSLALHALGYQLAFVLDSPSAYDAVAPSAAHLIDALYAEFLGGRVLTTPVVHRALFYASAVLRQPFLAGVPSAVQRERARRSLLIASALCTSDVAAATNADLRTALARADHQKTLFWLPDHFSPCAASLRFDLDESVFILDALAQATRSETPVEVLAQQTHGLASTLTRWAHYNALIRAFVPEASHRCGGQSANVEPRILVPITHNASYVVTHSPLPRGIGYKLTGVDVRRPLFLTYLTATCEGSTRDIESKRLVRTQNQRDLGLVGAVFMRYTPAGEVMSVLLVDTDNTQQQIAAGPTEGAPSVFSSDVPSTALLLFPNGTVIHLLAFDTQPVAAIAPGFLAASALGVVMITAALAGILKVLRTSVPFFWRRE

“HSV-1 gB-Sm (from UniProt P06437 31-904) (natural protein)”: the percent of the interaction of WT HSV-1 gH-Lg/gL was determined as 60% in assay [1], 60% in assay [2] and 54% in assay [3].

In assay [3], “HSV-1 gD-Sm (from UniProt Q69091 26-394) (natural protein)” showed a percent of the interaction of WT HSV-1 gH-Lg of 45%. The same substance registered a fold reduction in the absence of gL (against gH-Lg/gL) in assay [4] of 6 fold.
